The results in this text go back to patent publication US20170342107A1.

Square brackets hold non-standard residues; d marks the D form. Phe(4-I) = N[C@@H](Cc1ccc(I)cc1)C(=O)O

For assay [1], the target named is mouse melanocortin-3 receptor (mouse) (UniProt P33033). As to the kind of experiment: 125I-NDP-MSH competitive displacement, HEK293 cells stably expressing mMC3R.
Assay [2] shares this target. As to the kind of experiment: cell-based or functional assay.
The target in assay [3] is mouse melanocortin-4 receptor (mouse) (UniProt P56450). The assay can be described thus: cell-based or functional assay.
Sequence of mouse melanocortin-4 receptor (mouse) (P56450 whole entry): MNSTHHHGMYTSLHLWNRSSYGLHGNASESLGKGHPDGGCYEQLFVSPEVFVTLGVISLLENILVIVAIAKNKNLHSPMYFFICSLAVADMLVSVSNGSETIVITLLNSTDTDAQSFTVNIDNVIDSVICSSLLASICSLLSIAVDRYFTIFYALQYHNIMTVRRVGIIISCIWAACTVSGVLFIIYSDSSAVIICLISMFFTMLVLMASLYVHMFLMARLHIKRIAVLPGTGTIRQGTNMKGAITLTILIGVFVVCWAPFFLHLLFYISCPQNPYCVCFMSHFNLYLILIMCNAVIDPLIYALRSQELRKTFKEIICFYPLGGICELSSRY
Assay [4] shares this target. The assay can be described thus: 125I-NDP-MSH competitive displacement, HEK293 cells stably expressing mMC4R; here negative = weaker binder than SKY4-48-1.
The target is the same in assay [5]. The assay can be described thus: 125I-NDP-MSH competitive displacement, HEK293 cells stably expressing mMC4R.

Sequence of mouse melanocortin-3 receptor (mouse) (P33033 whole entry): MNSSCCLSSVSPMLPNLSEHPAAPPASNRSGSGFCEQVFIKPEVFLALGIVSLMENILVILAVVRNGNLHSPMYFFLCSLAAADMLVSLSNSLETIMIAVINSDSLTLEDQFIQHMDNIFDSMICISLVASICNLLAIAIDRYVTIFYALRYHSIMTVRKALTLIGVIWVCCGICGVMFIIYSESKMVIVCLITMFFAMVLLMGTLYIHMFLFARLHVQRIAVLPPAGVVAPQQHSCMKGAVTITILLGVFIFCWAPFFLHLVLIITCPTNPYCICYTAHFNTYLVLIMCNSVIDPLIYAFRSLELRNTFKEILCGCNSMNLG

B1: SKY5-122-2, Ac-DPhe-(pI)Phe-DArg-DHis-NH2 (peptide)
peptide: Ac-[dF][Phe(4-I)][dR][dH]-NH2
SMILES: CC(=O)N[C@H](Cc1ccccc1)C(=O)N[C@@H](Cc1ccc(I)cc1)C(=O)N[C@H](CCCNC(=N)N)C(=O)N[C@H](Cc1c[nH]cn1)C(N)=O
Regarding B1, in assay [1], the Fold Diff. (IC50 against SKY4-48-1) was 14 fold and the IC50 (as a rule, the concentration needed to halve the response being measured) is 3.5 µM. In assay [2], the Agonist Activity EC50 is more than 100 µM, the Antagonist Activity K worked out at 400 nM, the Antagonist Ki came to 0.398 µM and the pA2 (antagonist) is 6.4 pA2. Also, in assay [3], the Agonist Activity, % stimulation relative to maximum stood at 16 % @ 100 µM; the Agonist, % of NDP-MSH maximal response was determined as 16 % @ 100 µM; the Antagonist Ki is more than 3.1 µM. In addition, the Fold Diff. (IC50 against SKY4-48-1) in assay [4] was -326 fold. The same molecule came in with an IC50 in assay [5] of 39.5 µM.
